According to the supplement of paper PMC5998384:

Key:
HeLa Kyoto [1] = test: solubility change mitosis vs G1/S (difference of NP-40 vs SDS log2 ratios) (log2 ratio difference); higher = more soluble in mitosis
HeLa Kyoto [2] = test: solubility in G1/S (NP-40 vs SDS abundance) (log2 ratio); higher = more soluble; settings: cell cycle stage: G1/S
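Throughout, for solubility change mitosis vs G1/S (difference of NP-40 vs SDS log2 ratios): synchronized HeLa Kyoto cells (double thymidine block for G1/S, nocodazole release for mitosis), protein amounts in NP-40 versus SDS lysates quantified by mass spectrometry, three biological replicates.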
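Throughout, for solubility in G1/S (NP-40 vs SDS abundance): HeLa Kyoto cells arrested at G1/S by double thymidine block, proteins quantified by TMT10plex mass spectrometry in mild NP-40 versus SDS extracts, three biological replicates.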

| Sequence | solubility change mitosis (log2) (HeLa Kyoto [1]) | solubility in G1/S (log2) (HeLa Kyoto [2]) |
| --- | --- | --- |
| MAEGSRGGPTCSGVGGRQDPVSGSGGCNFPEYELPELNTRAFHVGAFGELWRGRLRGAGDLSLREPPASALPGSQAADSDREDAAVARDLDCSLEAAAELRAVCGLDKLKCLEDGEDPEVIPENTDLVTLGVRKRFLEHREETITIDRACRQETFVYEMESHAIGKKPENSADMIEEGELILSVNILYPVIFHKHKEHKPYQTMLVLGSQKLTQLRDSIRCVSDLQIGGEFSNTPDQAPEHISKDLYKSAFFYFEGTFYNDKRYPECRDLSRTIIEWSESHDRGYGKFQTARMEDFTFNDLCIKLGFPYLYCHQGDCEHVIVITDIRLVHHDDCLDRTLYPLLIKKHWLWTRKCFVCKMYTARWVTNNDSFAPEDPCFFCDVCFRMLHYDSEGNKLGEFLAYPYVDPGTFN [SNAPC3] | -0.167 | -0.0618 |
| MAELGEADEAELQRLVAAEQQKAQFTAQVHHFMELCWDKCVEKPGNRLDSRTENCLSSCVDRFIDTTLAITSRFAQIVQKGGQ [TIMM8B] | 0.734 | -0.938 |
| MAEPGEGLPEEVLALIFRHLSLRDRAAAARVCRAWAAAATCSAVWHDTKISCECELEGMLPPYLSACLDHIHNLRLEFEPSRKPSRRAAIELLMVLAGRAPGLRGLRLECRGEKPLFDAGRDVLEAVHAVCGAASQLRHLDLRRLSFTLDDALVLQAARSCPELHSLFLDNSTLVGSVGPGSVLELLEACPRLRALGLHLASLSHAILEALAAPDRAPFALLALRCACPEDARASPLPNEAWVALRRRHPGLAVELELEPALPAESVTRVLQPAVPVAALRLNLSGDTVGPVRFAAHHYAATLCALEVRAAASAELNAALEELAARCAALREVHCFCVVSHSVLDAFRAHCPRLRTYTLKLTREPHPWRPTLVA [FBXL8] | -0.0843 | -0.196 |
| MAESGGSSGGAGGGGAFGAGPGPERPNSTADKNGALKCTFSAPSHSTSLLQGLATLRAQGQLLDVVLTINREAFPAHKVVLAACSDYFRAMFTGGMREASQDVIELKGVSARGLRHIIDFAYSAEVTLDLDCVQDVLGAAVFLQMLPVVELCEEFLKAAMSVETCLNIGQMATTFSLASLRESVDAFTFRHFLQIAEEEDFLRLPLERLVFFLQSNRLQSCAEIDLFRAAVRWLQHDPARRPRASHVLCHIRFPLMQSSELVDSVQTLDIMVEDVLCRQYLLEAFNYQVLPFRQHEMQSPRTAVRSDVPSLVTFGGTPYTDSDRSVSSKVYQLPEPGARHFRELTEMEVGCSHTCVAVLDNFVYVAGGQHLQYRSGEGAVDACYRYDPHLNRWLRLQAMQESRIQFQLNVLCGMVYATGGRNRAGSLASVERYCPRRNEWGYACSLKRRTWGHAGAASGGRLYISGGYGISVEDKKALHCYDPVADQWEFKAPMSEPRVLHAMVGAGGRIYALGGRMDHVDRCFDVLAVEYYVPETDQWTSVSPMRAGQSEAGCCLLERKIYIVGGYNWRLNNVTGIVQVYNTDTDEWERDLHFPESFAGIACAPVLLPRAGTRR [KLHL26] | -0.0565 | -0.0553 |
| MAETKIIYHMDEEETPYLVKLPVAPERVTLADFKNVLSNRPVHAYKFFFKSMDQDFGVVKEEIFDDNAKLPCFNGRVVSWLVLAEGAHSDAGSQGTDSHTDLPPPLERTGGIGDSRPPSFHPNVASSRDGMDNETGTESMVSHRRERARRRNREEAARTNGHPRGDRRRDVGLPPDSASTALSSELESSSFVDSDEDGSTSRLSSSTEQSTSSRLIRKHKRRRRKQRLRQADRASSFSSITDSTMSLNIVTVTLNMERHHFLGISIVGQSNDRGDGGIYIGSIMKGGAVAADGRIEPGDMLLQVNDVNFENMSNDDAVRVLREIVSQTGPISLTVAKCWDPTPRSYFTVPRADPVRPIDPAAWLSHTAALTGALPRYGTSPCSSAVTRTSSSSLTSSVPGAPQLEEAPLTVKSDMSAVVRVMQLPDSGLEIRDRMWLKITIANAVIGADVVDWLYTHVEGFKERREARKYASSLLKHGFLRHTVNKITFSEQCYYVFGDLCSNLATLNLNSGSSGTSDQDTLAPLPHPAAPWPLGQGYPYQYPGPPPCFPPAYQDPGFSYGSGSTGSQQSEGSKSSGSTRSSRRAPGREKERRAAGAGGSGSESDHTAPSGVGSSWRERPAGQLSRGSSPRSQASATAPGLPPPHPTTKAYTVVGGPPGGPPVRELAAVPPELTGSRQSFQKAMGNPCEFFVDIM [DVL1] | 0.0447 | -0.0781 |
| MAGAATGSRTPGRSELVEGCGWRCPEHGDRVAELFCRRCRRCVCALCPVLGAHRGHPVGLALEAAVHVQKLSQECLKQLAIKKQQHIDNITQIEDATEKLKANAESSKTWLKGKFTELRLLLDEEEALAKKFIDKNTQLTLQVYREQADSCREQLDIMNDLSNRVWSISQEPDPVQRLQAYTATEQEMQQQMSLGELCHPVPLSFEPVKSFFKGLVEAVESTLQTPLDIRLKESINCQLSDPSSTKPGTLLKTSPSPERSLLLKYARTPTLDPDTMHARLRLSADRLTVRCGLLGSLGPVPVLRFDALWQVLARDCFATGRHYWEVDVQEAGAGWWVGAAYASLRRRGASAAARLGCNRQSWCLKRYDLEYWAFHDGQRSRLRPRDDLDRLGVFLDYEAGVLAFYDVTGGMSHLHTFRATFQEPLYPALRLWEGAISIPRLP [TRIM14] | -0.0649 | -0.209 |
| MAGAGGQHHPPGAAGGAAAGAGAAVTSAAASAGPGEDSSDSEAEQEGPQKLIRKVSTSGQIRTKTSIKEGQLLKQTSSFQRWKKRYFKLRGRTLYYAKDSKSLIFDEVDLSDASVAEASTKNANNSFTIITPFRRLMLCAENRKEMEDWISSLKSVQTREPYEVAQFNVEHFSGMHNWYACSHARPTFCNVCRESLSGVTSHGLSCEVCKFKAHKRCAVRATNNCKWTTLASIGKDIIEDEDGVAMPHQWLEGNLPVSAKCAVCDKTCGSVLRLQDWKCLWCKTMVHTACKDLYHPICPLGQCKVSIIPPIALNSTDSDGFCRATFSFCVSPLLVFVNSKSGDNQGVKFLRRFKQLLNPAQVFDLMNGGPHLGLRLFQKFDNFRILVCGGDGSVGWVLSEIDKLNLNKQCQLGVLPLGTGNDLARVLGWGGSYDDDTQLPQILEKLERASTKMLDRWSIMTYELKLPPKASLLPGPPEASEEFYMTIYEDSVATHLTKILNSDEHAVVISSAKTLCETVKDFVAKVEKTYDKTLENAVVADAVASKCSVLNEKLEQLLQALHTDSQAAPVLPGLSPLIVEEDAVESSSEESLGESKEQLGDDVTKPSSQKAVKPREIMLRANSLKKAVRQVIEEAGKVMDDPTVHPCEPANQSSDYDSTETDESKEEAKDDGAKESITVKTAPRSPDARASYGHSQTDSVPGPAVAASKENLPVLNTRIICPGLRAGLAASIAGSSIINKMLLANIDPFGATPFIDPDLDSVDGYSEKCVMNNYFGIGLDAKISLEFNNKREEHPEKCRSRTKNLMWYGVLGTRELLQRSYKNLEQRVQLECDGQYIPLPSLQGIAVLNIPSYAGGTNFWGGTKEDDIFAAPSFDDKILEVVAIFDSMQMAVSRVIKLQHHRIAQCRTVKITIFGDEGVPVQVDGEAWVQPPGIIKIVHKNRAQMLTRDRAFESTLKSWEDKQKCDSGKPVLRTHLYIHHAIDLATEEVSQMQLCSQAAEELITRICDAATIHCLLEQELAHAVNACSHALNKANPRCPESLTRDTATEIAINVKALYNETESLLVGRVPLQLESPHEERVSNALHSVEVELQKLTEIPWLYYILHPNEDEEPPMDCTKRNNRSTVFRIVPKFKKEKVQKQKTSSQPVQKWGTEEVAAWLDLLNLGEYKDIFIRHDIRGAELLHLERRDLKDLGIPKVGHVKRILQGIKELGRSTPQSEV [DGKH] | 0.0195 | -0.212 |
| MAGEEINEDYPVEIHEYLSAFENSIGAVDEMLKTMMSVSRNELLQKLDPLEQAKVDLVSAYTLNSMFWVYLATQGVNPKEHPVKQELERIRVYMNRVKEITDKKKAGKLDRGAASRFVKNALWEPKSKNASKVANKGKSKS [C1D] | 0.679 | -0.223 |
| MAGNKGRGRAAYTFNIEAVGFSKGEKLPDVVLKPPPLFPDTDYKPVPLKTGEGEEYMLALKQELRETMKRMPYFIETPEERQDIERYSKRYMKVYKEEWIPDWRRLPREMMPRNKCKKAGPKPKKAKDAGKGTPLTNTEDVLKKMEELEKRGDGEKSDEENEEKEGSKEKSKEGDDDDDDDAAEQEEYDEEEQEEENDYINSYFEDGDDFGADSDDNMDEATY [POLR3G] | -0.0224 | 0.214 |
| MAGPAPPVADELPGPAARRLYSRMEASCLELALEGERLCKAGDFKTGVAFFEAAVQVGTEDLKTLSAIYSQLGNAYFYLKEHGRALEYHKHDLLLARTIGDRMGEAKASGNLGNTLKVLGRFDEAAVCCQRHLSIAQEQGDKVGEARALYNIGNVYHAKGKQLSWNAANATQDPGHLPPDVRETLCKASEFYERNLSLVKELGDRAAQGRAYGNLGNTHYLLGNFTEATTFHKERLAIAKEFGDKAAERRAYSNLGNAHVFLGRFDVAAEYYKKTLQLSRQLRDQAVEAQACYSLGNTYTLLQDYERAAEYHLRHLLIAQELADRVGEGRACWSLGNAYVSMGRPAQALTFAKKHLQISQEIGDRHGELTARMNVAQLQLVLGRLTSPAASEKPDLAGYEAQGARPKRTQRLSAETWDLLRLPLEREQNGDSHHSGDWRGPSRDSLPLPVRSRKYQEGPDAERRPREGSHSPLDSADVRVHVPRTSIPRAPSSDEECFFDLLTKFQSSRMDDQRCPLDDGQAGAAEATAAPTLEDRIAQPSMTASPQTEEFFDLIASSQSRRLDDQRASVGSLPGLRITHSNAGHLRGHGEPQEPGDDFFNMLIKYQSSRIDDQRCPPPDVLPRGPTMPDEDFFSLIQRVQAKRMDEQRVDLAGGPEQGAGGPPEPQQQCQPGAS [GPSM1] | -0.0781 | 0.244 |
| MAGPGSTGGQIGAAALAGGARSKVAPSVDFDHSCSDSVEYLTLNFGPFETVHRWRRLPPCDEFVGARRSKHTVVAYKDAIYVFGGDNGKTMLNDLLRFDVKDCSWCRAFTTGTPPAPRYHHSAVVYGSSMFVFGGYTGDIYSNSNLKNKNDLFEYKFATGQWTEWKIEGRLPVARSAHGATVYSDKLWIFAGYDGNARLNDMWTIGLQDRELTCWEEVAQSGEIPPSCCNFPVAVCRDKMFVFSGQSGAKITNNLFQFEFKDKTWTRIPTEHLLRGSPPPPQRRYGHTMVAFDRHLYVFGGAADNTLPNELHCYDVDFQTWEVVQPSSDSEVGGAEVPERACASEEVPTLTYEERVGFKKSRDVFGLDFGTTSAKQPTQPASELPSGRLFHAAAVISDAMYIFGGTVDNNIRSGEMYRFQFSCYPKCTLHEDYGRLWESRQFCDVEFVLGEKEECVQGHVAIVTARSRWLRRKITQARERLAQKLEQEAAPVPREAPGVAAGGARPPLLHVAIREAEARPFEVLMQFLYTDKIKYPRKGHVEDVLLIMDVYKLALSFQLCRLEQLCRQYIEASVDLQNVLVVCESAARLQLSQLKEHCLNFVVKESHFNQVIMMKEFERLSSPLIVEIVRRKQQPPPRTPLDQPVDIGTSLIQDMKAYLEGAGAEFCDITLLLDGHPRPAHKAILAARSSYFEAMFRSFMPEDGQVNISIGEMVPSRQAFESMLRYIYYGEVNMPPEDSLYLFAAPYYYGFYNNRLQAYCKQNLEMNVTVQNVLQILEAADKTQALDMKRHCLHIIVHQFTKVSKLPTLRSLSQQLLLDIIDSLASHISDKQCAELGADI [LZTR1] | -0.0816 | -0.115 |
| MAGQEDPVQREIHQDWANREYIEIITSSIKKIADFLNSFDMSCRSRLATLNEKLTALERRIEYIEARVTKGETLT [BRK1] | 0.228 | -0.551 |
